Reference: publication PMC5826061

molecular target: T1, GlnR (Streptomyces coelicolor) (UniProt Q05943); test: DNase I footprinting; conditions: 50 mM Tris-HCl pH 8.0, 100 mM KCl, 2.5 mM MgCl2, 1 mM DTT, 10% glycerol; EMSA in 20 ul with 100 ng/ul sheared salmon sperm DNA, room temperature, 20 min …
T1 sequence: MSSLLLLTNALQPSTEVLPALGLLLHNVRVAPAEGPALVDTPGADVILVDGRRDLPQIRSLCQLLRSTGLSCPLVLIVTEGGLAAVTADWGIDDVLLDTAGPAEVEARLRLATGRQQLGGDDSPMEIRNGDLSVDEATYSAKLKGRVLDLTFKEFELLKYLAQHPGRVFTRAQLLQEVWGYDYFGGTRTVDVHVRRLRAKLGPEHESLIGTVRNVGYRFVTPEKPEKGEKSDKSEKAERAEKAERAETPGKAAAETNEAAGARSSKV

binding, binds:
GTAAAACGACGGCCAGTCCATGCCAGGTCATTCGGAGGCCGCCGCGGCCGGCTTGCGTTCCGGGCCGGACGGCCCGGGCACGACGACGACCGGCCCCGGCCGTTCACCCACGCGTAACACGCACCGTGCCTTCGTCACGGCGGCGAAACAACGAGAAATCTCCACCGAAACCGCGCTGCGTCAATGTCGTGGCGCATAACCGGCCCACCCCTCACCGCCCGCCCGCCAGGCTTCGCCCCCACGGGGCCGCACCAACGACGAGGAGACGCCGATGTCTAGATTTTT (double strand) [amtB promoter a2m footprint probe]
GTAAAACGACGGCCAGTCCATGCCAGGTCATTCGGAGGCCGCCGCGGCCGGCTTGCGTTCCGGGCCGGACGGCCCGGGCACGACGACGACCGGCCCCGGCCGTTCACCCACGCGTAACACGCACCGTGCCTTCGTCACGGCGGCGAAACAACGAGGGGCTTCCACCGAAACCGCGCTGCGTCAATGTCGTGGCGCATAACCGGCCCACCCCTCACCGCCCGCCCGCCAGGCTTCGCCCCCACGGGGCCGCACCAACGACGAGGAGACGCCGATGTCTAGATTTTT (double strand) [amtB promoter WT footprint probe]
GTAAAACGACGGCCAGTCCATGCCAGGTCATTCGGAGGCCGCCGCGGCCGGCTTGCGTTCCGGGCCGGACGGCCCGGGCACGACGACGACCGGCCCCGGCCGTTCACCCACGCGTAACACGCAGGGGCTTCCACCGAAACCGCGCTGCGTCAATGTCGTGGCGCATAACCGGCCCACCCCTCACCGCCCGCCCGCCAGGCTTCGCCCCCACGGGGCCGCACCAACGACGAGGAGACGCCGATGTCTAGATTTTT (double strand) [amtB promoter m3 footprint probe]
